B1: Membrane-associated guanylate kinase, WW and PDZ domain-containing protein 1, residues 352 to 401; numbered along this chain, Q96QZ7 (parent)
chain: TEELDSELELPAGWEKIEDPVYGIYYVDHINRKTQYENPVLEAKRKKQLE

± gives the uncertainty stated by the source.

This series covers variants of B1. Put plainly: abundance fitness (aPCA) (normalised: wild type 0, dead -1); higher = more abundant; growth selection in yeast, the domain comes from the species named. The conditions noted are these: Homo sapiens.
As to Q35I, the abundance fitness is -0.571 ± 0.2. As to Q35L, the abundance fitness was -0.423 ± 0.045. As to Q35T, the abundance fitness turned out to be 0.009 ± 0.078. For the variant Q35Y, the abundance fitness was -0.15 ± 0.15. Consider Q35W, for which the abundance fitness was -0.48 ± 0.055. As to Q35R, the abundance fitness was -0.334 ± 0.051. For Q35N, the abundance fitness is -0.516 ± 0.049.

On to Q35A, for which the abundance fitness is -0.26 ± 0.046.

On to Q35G, for which the abundance fitness was -0.487 ± 0.041. Turning to Q35M, the abundance fitness is -0.18 ± 0.078. Then Q35D, with -0.597 ± 0.11. Q35C: the abundance fitness is -0.338 ± 0.095. Regarding Q35V, the abundance fitness is -0.188 ± 0.056. As for Q35H, the abundance fitness was -0.588 ± 0.18. On to Q35E, for which the abundance fitness is -0.373 ± 0.055. With Q35F, the abundance fitness is -0.68 ± 0.27.

Take K44A: the abundance fitness is -0.079 ± 0.051. As to K44D, the abundance fitness is -0.106 ± 0.082. K44E: the abundance fitness was 0.019 ± 0.043.

On to K44G, for which the abundance fitness is -0.068 ± 0.051.

Regarding K44F, the abundance fitness is -0.186 ± 0.072.

Take K44P: the abundance fitness is -0.27 ± 0.065. On to K44C, for which the abundance fitness is -0.03 ± 0.078.

As to K44Y, the abundance fitness was -0.041 ± 0.068. With K44R, the abundance fitness is -0.057 ± 0.045.

As to K44M, the abundance fitness was -0.064 ± 0.07. With K44W, the abundance fitness was -0.237 ± 0.046. Then K44L, with -0.061 ± 0.039; and K44Q, with -0.086 ± 0.077. With K44T, the abundance fitness was -0.2 ± 0.07. The result for K44S reads -0.106 ± 0.05; that for K44H, -0.196 ± 0.15; that for K44V, -0.286 ± 0.062. Consider K44I, for which the abundance fitness is -0.438 ± 0.13. The result for E42Q reads -0.222 ± 0.081. Take E42L: the abundance fitness was -0.231 ± 0.048. Turning to E42G, the abundance fitness was -0.137 ± 0.038. On to E42A, for which the abundance fitness was -0.225 ± 0.05. Consider E42R, for which the abundance fitness was -0.565 ± 0.053. With E42P, the abundance fitness is -0.361 ± 0.05. With E42F, the abundance fitness was -0.535 ± 0.13. With E42W, the abundance fitness was -0.26 ± 0.051. For the variant E42H, the abundance fitness was -0.599 ± 0.17. For the variant E42I, the abundance fitness is -0.117 ± 0.087. Consider E42D, for which the abundance fitness is -0.192 ± 0.062. Take E42V: the abundance fitness is -0.149 ± 0.043. Take E42T: the abundance fitness is -0.086 ± 0.042.

In the case of E42N, the abundance fitness was -0.285 ± 0.069. For E42K, the abundance fitness is -0.505 ± 0.091.

Regarding E42Y, the abundance fitness was -0.366 ± 0.055. Take E42C: the abundance fitness was -0.297 ± 0.046. The result for Y36H reads -0.093 ± 0.043; that for Y36Q, -0.134 ± 0.049. For Y36W, the abundance fitness is -0.093 ± 0.06. In the case of Y36M, the abundance fitness came to 0.096 ± 0.083.

For Y36I, the abundance fitness is -0.185 ± 0.041.

For Y36T, the abundance fitness was -0.041 ± 0.078.

Regarding Y36F, the abundance fitness was -0.308 ± 0.085. The result for Y36D reads -0.32 ± 0.069; that for Y36R, 0.059 ± 0.051.

For Y36V, the abundance fitness is -0.11 ± 0.059. Regarding Y36E, the abundance fitness was -0.172 ± 0.041. As to Y36A, the abundance fitness is -0.102 ± 0.067. Regarding Y36P, the abundance fitness was -0.161 ± 0.046. With Y36N, the abundance fitness was -0.176 ± 0.063. Consider Y36S, for which the abundance fitness was -0.086 ± 0.059. With Y36L, the abundance fitness was -0.048 ± 0.063.

For Y36K, the abundance fitness is -0.058 ± 0.048. As to Y36C, the abundance fitness is -0.463 ± 0.08. In the case of P39H, the abundance fitness was -1.3 ± 0.28.

As for P39M, the abundance fitness is -0.714 ± 0.086. Take P39W: the abundance fitness was -0.894 ± 0.072. As to P39G, the abundance fitness was -0.393 ± 0.057.

For the variant P39C, the abundance fitness is -0.817 ± 0.12. On to P39S, for which the abundance fitness was -0.597 ± 0.069. In the case of P39L, the abundance fitness was -0.615 ± 0.048. Then P39F, with -1 ± 0.17. Turning to P39Y, the abundance fitness is -1.21 ± 0.23.

Regarding P39D, the abundance fitness is -0.314 ± 0.098. Take P39K: the abundance fitness is -0.857 ± 0.15. Then P39I, with -1.04 ± 0.23.

Regarding P39A, the abundance fitness was -0.379 ± 0.042. Consider P39V, for which the abundance fitness is -0.699 ± 0.062.

Turning to P39R, the abundance fitness is -0.648 ± 0.046. The result for P39E reads -0.466 ± 0.057; that for P39Q, -0.447 ± 0.087; that for Q48F, -0.339 ± 0.13.

On to Q48G, for which the abundance fitness was -0.221 ± 0.047.

Turning to Q48I, the abundance fitness worked out at 0.188 ± 0.092. As to Q48A, the abundance fitness is -0.045 ± 0.044.

As to Q48C, the abundance fitness is -0.134 ± 0.061.

With Q48E, the abundance fitness was 0.262 ± 0.077. The result for Q48H reads -0.1 ± 0.089. The result for Q48K reads -0.035 ± 0.055.

Consider Q48D, for which the abundance fitness is 0.017 ± 0.073.

Take N38M: the abundance fitness was -0.116 ± 0.064. With N38E, the abundance fitness is -0.254 ± 0.084.

In the case of N38D, the abundance fitness is -0.158 ± 0.064. The result for N38P reads -0.481 ± 0.1; that for N38Y, -0.365 ± 0.097.

Turning to N38Q, the abundance fitness is -0.387 ± 0.1. For N38F, the abundance fitness was -0.058 ± 0.062. For the variant N38A, the abundance fitness is -0.146 ± 0.059.

With N38W, the abundance fitness was -0.138 ± 0.072. On to N38R, for which the abundance fitness was -0.079 ± 0.04. Turning to N38H, the abundance fitness amounted to 0.171 ± 0.057. The result for N38I reads -0.61 ± 0.2; that for N38C, -0.747 ± 0.051; that for N38K, -0.444 ± 0.1.

N38T: the abundance fitness is -0.341 ± 0.068. With N38L, the abundance fitness was -0.271 ± 0.044. As for N38S, the abundance fitness is -0.066 ± 0.065.

Turning to N38G, the abundance fitness is -0.45 ± 0.059. A43E: the abundance fitness was -0.011 ± 0.053. For A43V, the abundance fitness is -0.131 ± 0.042. For A43C, the abundance fitness is -0.246 ± 0.078.

For the variant A43Y, the abundance fitness was -0.33 ± 0.1. A43L: the abundance fitness is -0.012 ± 0.059. Then A43H, with -0.161 ± 0.087.

Regarding A43Q, the abundance fitness is -0.024 ± 0.047. With A43F, the abundance fitness was -0.357 ± 0.1. For the variant A43R, the abundance fitness is -0.11 ± 0.042. Turning to A43P, the abundance fitness was -0.184 ± 0.079. On to A43D, for which the abundance fitness worked out at 0.003 ± 0.049. Then A43I, with -0.092 ± 0.088.

Take A43M: the abundance fitness is -0.044 ± 0.08.

Turning to A43K, the abundance fitness was -0.236 ± 0.1. As to A43W, the abundance fitness is -0.231 ± 0.069. As to A43T, the abundance fitness stood at 0.045 ± 0.064. For A43G, the abundance fitness was -0.137 ± 0.05. As to A43N, the abundance fitness is -0.014 ± 0.047. Take L41H: the abundance fitness came out at 0.032 ± 0.044. As for L41I, the abundance fitness is -0.324 ± 0.11. For L41Q, the abundance fitness worked out at 0.001 ± 0.044.

L41W: the abundance fitness is -0.114 ± 0.042. In the case of L41G, the abundance fitness is -0.094 ± 0.04. For L41A, the abundance fitness came out at 0.038 ± 0.05. On to L41R, for which the abundance fitness was -0.039 ± 0.037. L41E: the abundance fitness is -0.053 ± 0.071.

On to L41F, for which the abundance fitness was 0.064 ± 0.087. Take L41Y: the abundance fitness is -0.021 ± 0.075.

On to L41S, for which the abundance fitness is -0.011 ± 0.055. With L41C, the abundance fitness is -0.116 ± 0.075. Turning to L41M, the abundance fitness came out at 0.03 ± 0.074. As to L41P, the abundance fitness was -0.128 ± 0.07. For the variant L41N, the abundance fitness is -0.137 ± 0.12. On to L41K, for which the abundance fitness was -0.035 ± 0.078. As for L41V, the abundance fitness came to 0.001 ± 0.045. In the case of L41T, the abundance fitness was -0.058 ± 0.076. In the case of I30N, the abundance fitness is -0.397 ± 0.08.

For I30K, the abundance fitness was -0.078 ± 0.067. Consider I30S, for which the abundance fitness is -0.279 ± 0.063. Then I30P, with -0.208 ± 0.076; and I30C, with -0.322 ± 0.077; and I30E, with -0.079 ± 0.071. As for I30L, the abundance fitness was -0.082 ± 0.054. Regarding I30D, the abundance fitness was -0.459 ± 0.083. Consider I30M, for which the abundance fitness is -0.311 ± 0.088.

With I30V, the abundance fitness is -0.064 ± 0.044. Regarding I30Q, the abundance fitness was -0.215 ± 0.047. With I30R, the abundance fitness is -0.128 ± 0.038. Then I30Y, with -0.086 ± 0.1; and I30G, with -0.203 ± 0.042; and I30A, with -0.093 ± 0.041. For I30F, the abundance fitness is -0.195 ± 0.041. Consider I30T, for which the abundance fitness is -0.256 ± 0.078.

On to I30W, for which the abundance fitness was -0.431 ± 0.072.

Values taken from the Human Domainome abundance scans (Beltran et al. 2025).
